The record followed here is patent US20140212439A1 (Daiichi Sankyo, published 2014).

Assay [1] concerns the target human EPHA2 expressed on cells (human, UniProt P29317 24-976). The experiment in a line: cell-based or functional assay.
The next assay concerns the target T1, bovine serum albumin (bovine, UniProt P02769 25-607).
T1 construct: Control protein in the ELISA; also called BSA
The experiment in a line: ELISA on plate-coated BSA. Here is the method: A solution of an EPHA2 extracellular region polypeptide (manufactured by R&D Systems, Inc., #3035-A2-100) or bovine serum albumin (in the description below and the figures, abbreviated to “BSA”) as a control diluted to 1 μg/ml with PBS was dispensed at 100 μl/well onto an immunoplate (manufactured by Nunc, #442404) and incubated overnight at 4° C. to thereby adsorb the protein to the plate.
The plate was incubated at room temperature for 1 hour. Then, the solution in the wells was removed, and the wells were washed twice with Diluting Buffer. Goat anti-Mouse IgG, Peroxidase Conjugated (manufactured by Millipore (Chemicon), #AP181P) diluted 1000 times with Diluting Buffer was added at 100 μl/well and incubated at room temperature for 1 hour. The solution in the wells was removed, and the wells were washed twice with Diluting Buffer. Then, a color reaction was performed with stirring by the addition of OPD Color Developing Solution at 100 μl/well. After color development, the color reaction was terminated by the addition of 1 M HCl at 100 μl/well. The absorbance at 490 nm was measured using a plate reader (FIG. 7).
(In general: An ELISA detects its analyte on a solid surface through an enzyme-linked reagent.)

Chain of human EPHA2 expressed on cells (P29317 24-976 limits assumed): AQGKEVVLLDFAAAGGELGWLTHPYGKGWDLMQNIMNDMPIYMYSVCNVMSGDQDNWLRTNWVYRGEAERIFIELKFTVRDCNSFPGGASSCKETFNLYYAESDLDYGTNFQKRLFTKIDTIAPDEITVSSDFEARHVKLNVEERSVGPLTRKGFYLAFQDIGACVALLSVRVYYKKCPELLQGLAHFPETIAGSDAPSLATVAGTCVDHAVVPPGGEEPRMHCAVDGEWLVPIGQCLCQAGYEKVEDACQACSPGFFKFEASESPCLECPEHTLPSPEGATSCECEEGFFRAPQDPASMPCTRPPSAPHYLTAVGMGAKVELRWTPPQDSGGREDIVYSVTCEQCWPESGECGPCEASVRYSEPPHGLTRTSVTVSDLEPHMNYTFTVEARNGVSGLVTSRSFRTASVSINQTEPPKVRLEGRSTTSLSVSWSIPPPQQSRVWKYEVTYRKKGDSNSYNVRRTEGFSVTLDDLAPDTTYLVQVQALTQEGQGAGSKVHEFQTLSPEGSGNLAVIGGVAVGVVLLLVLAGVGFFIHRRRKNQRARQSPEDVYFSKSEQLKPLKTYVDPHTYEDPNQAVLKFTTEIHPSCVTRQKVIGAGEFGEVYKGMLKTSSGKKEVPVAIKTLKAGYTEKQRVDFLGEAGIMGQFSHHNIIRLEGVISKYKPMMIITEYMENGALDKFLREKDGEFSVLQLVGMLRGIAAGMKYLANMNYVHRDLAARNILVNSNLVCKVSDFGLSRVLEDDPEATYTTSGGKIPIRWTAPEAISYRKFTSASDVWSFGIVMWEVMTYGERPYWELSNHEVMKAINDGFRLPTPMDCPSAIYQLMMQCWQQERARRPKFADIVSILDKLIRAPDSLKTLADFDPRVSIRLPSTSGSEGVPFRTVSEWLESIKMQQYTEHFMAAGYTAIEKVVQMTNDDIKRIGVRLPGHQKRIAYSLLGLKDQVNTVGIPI
T1 sequence (P02769 25-607 limits assumed): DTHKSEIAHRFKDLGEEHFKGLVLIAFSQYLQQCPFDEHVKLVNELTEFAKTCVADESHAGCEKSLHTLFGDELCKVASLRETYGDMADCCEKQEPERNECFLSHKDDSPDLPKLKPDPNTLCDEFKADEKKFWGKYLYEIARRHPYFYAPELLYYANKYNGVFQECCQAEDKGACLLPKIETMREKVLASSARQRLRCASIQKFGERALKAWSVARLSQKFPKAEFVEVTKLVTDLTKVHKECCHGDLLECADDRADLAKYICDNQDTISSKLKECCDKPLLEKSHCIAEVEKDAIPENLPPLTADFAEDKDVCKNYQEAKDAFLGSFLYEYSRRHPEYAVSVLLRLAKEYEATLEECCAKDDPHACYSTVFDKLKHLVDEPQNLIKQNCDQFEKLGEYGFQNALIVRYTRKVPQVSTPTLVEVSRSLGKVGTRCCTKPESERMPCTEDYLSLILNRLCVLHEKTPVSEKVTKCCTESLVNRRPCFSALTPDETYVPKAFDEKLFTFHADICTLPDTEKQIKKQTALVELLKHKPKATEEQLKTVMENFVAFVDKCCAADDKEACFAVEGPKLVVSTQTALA

B1: SH348-1 (antibody produced by hybridoma SH348-1, FERM BP-10836) (antibody, mouse IgG2a, kappa, V domains shown)
VH: QIQLVQSGPELKKPGETVKISCKASGYTFTHYSMHWVKQAPGKGLKWMGWINTYTGEPTYADDFKGRFAFSLETSASTAFLQINNLKNEDTATYFCATYYRYERDFDYWGQGTTLTVSS
VL: DVLMTQSPLSLPVSLGDQASISCRSSQSIVHSNGNTYLEWYLQKPGQSPKLLIYKVSNRFSGVPDRFSGSGSGTDFTLRISRVEAEDLGVYYCFQGSHVPYTFGGGTKLEIKR
modifications: N-terminal pyroglutamic acid
notes: Mouse monoclonal IgG2a, kappa; The ends of the cDNAs are primer-derived; also called bSH348-1 (biotinylated form)
Regarding B1, in assay [1], the “EPHA2 protein level after 24 hours, EPHA2/β-actin band intensity relative to mIgG2a (100%), with cross-linking antibody” value is 69% and the “EPHA2 protein level after 24 hours, EPHA2/β-actin band intensity relative to mIgG2a (100%), without cross-linking antibody” value worked out at 70%. The binding result in the assay with bovine serum albumin is recorded as “no binding (tested: up to 125 µg/ml)”.

B2: SH357-1 (antibody produced by hybridoma SH357-1, FERM BP-10837) (antibody, mouse IgG2a, kappa, V domains shown)
VH: QIQLVQSGPELKKPGETVKISCKASGYTFIDYSMHWVKQAPGKGLKWMGWINTYTGEPTYSDDFKGRFAFSLETSASTAYLQISNLKNEDTASYFCATYYRYERDFDYWGQGTTLTVSS
VL: DVLMTQTPLSLPVSLGDQASISCRSSQSIVHSSGITYLEWYLQKPGQSPKLLIYKVSNRFSGVPDRFSGSGSGTDFTLKISRVEAEDLGVYYCFQGSHVPYTFGGGTKLEIKR
notes: Mouse monoclonal IgG2a, kappa; also called bSH357-1 (biotinylated form)
For the molecule B2, the binding result with bovine serum albumin is reported as “no binding (tested: up to 125 µg/ml)”.
